Consider four molecules from US6964763B1, “Methods and compositions for inhibiting HIV infectivity and blocking chemokine activity” (priority 1997, dated 2005).

The test system of assay [1] is CD4-gp120 complex formation. Nature of the assay: Competitive inhibition of 125I-CD4 binding to immobilized gp120. Also noted: species or system HIV-1 (MN and LAI isolates). The following applies: 10-fold molar excess (0.5 μM) competitor, 50 nM 125I-CD4, MN and LAI gp120. The procedure:
FIG. 5 is a graph showing competitive inhibition of ^125I-CD4 binding to gp120. […] Samples were incubated, and bound TSP1 was measured as in FIG. 2. A single data set of triplicate samples (η=3, error as SD) is shown.
Radiolabeling was performed with Na[^125I]
These observations support a role for salivary TSP1 as a direct inhibitor of HIV infectivity.

Assay [2] deals with recombinant HIV-1 gp160 (gp120 non-covalently linked to gp41) (Human immunodeficiency virus type 1 group M subtype B, UniProt P03375). The following applies: 10-fold molar excess (0.5 μM) unlabeled competitor, 50 nM 125I-TSP1.
Protocol: Increasing concentrations of soluble ^125I-labeled TSP1 (1 nM-μM) were added to immobilized recombinant HIV-1 gp160 for 3 hours at 22° C., and bound TSP1 measured after extensive washing. Non-linear curve fit was generated with Excell™ version 5.0. Apparent affinity was estimated from Scatchard analysis. (n=2; error calculated as standard deviation, SD).
A fixed concentration of ^125I-labeled TSP 1(50 nM) was added to immobilized rgp 160 in the absence or presence of 10-fold molar excess (0.5 μM) unlabeled TSP1, fusion protein LFP75-155 containing the LIMPII TSP binding domain (aa 75-155), or downstream fusion protein LFP 156-243. Samples were incubated, and bound TSP 1 was measured as in FIG. 2A. Plots represent single data sets of triplicate samples. (n=3, error as SD).
Briefly, TSP1 (5-10 μg/ml) or fusion proteins and peptides (10-20 μg/ml) were immobilized on detachable 96-well microtiter plate strips (Immulon-4 Remov-a-well, Dynatech Laboratories, Inc.), by overnight incubation at 4° C. in carbonate buffer (100 mM Na2CO3/1 mM MgCl2/0.02% NaN3, pH 9.8). Washed wells were blocked with 0.5% bovine serum albumin (“BSA”), then incubated in triplicate with soluble radiolabeled ligand for 2.5 hours at 37° C. After extensive washing in 50 mM Tris pH 7.5, 150 mM NaCl, 0.5% Tween-20 (TBS-Tween), bound radioactivity was quantified by gamma counter. Radiolabeling was performed with Na[^125I] […] Specific activity of Na[^125I] was determined for each experiment, ranging from 0.06-1.0 μCi/μg. Specific binding was determined as quenchable in the presence of excess unlabeled ligand, above background binding to BSA-coated wells.
A further assay has as its system HIV-1 isolate IIIB. Put plainly: HIV-1 infectivity assay, virus pre-incubated with TSP1 or saliva, p24 ELISA day 7. Format: cell-based. The procedure:
HIV-1 isolate IIIB was pre-incubated in the absence of TSP1, or with various concentrations of purified TSP1 for 1 hour at 37° C. Pre-incubated virus-TSP1 mixtures were added to target cells either directly (−), or first passed through 0.2 μm filters (+). Phorbol myrisate acetate (“PMA”) activated primary peripheral blood mononuclear cells (“PBMC”), SK23 (T-cell line) or U937 (promonocytic line) were inoculated with the multiplicities of infection (“moi”) indicated. After an additional 1 hour at 37° C., infected cells were washed, cultured for 7 days, and HIV-1 p24 antigen measured by ELISA. Inhibition is expressed for a single data set as percent of maximum p24 detected in the absence of TSP1.
PMA-stimulated primary PBMC were infected with 0.02 moi HIV/IIIB that had been pre-incubated with TSP1 alone, or with LIMPII fusion protein LFP75-155 alone or in the presence of TSP1, and filtered prior to incubation as in FIG. 7. TSP-mediated inhibition is expressed as percent decrease in p24 relative to maximum p24 detected in the absence of TSP 1. Data shown represent the average of two independent experiments (error as SD). […]
On the technique in general: ELISA stands for enzyme-linked immunosorbent assay.

B1: CFP67-157: GST fusion protein containing the TSP1 binding domain of CD36 (aa 67-157) (protein)
chain: IFDVQNPQEVMMNSSNIQVKQRGPYTYRVRFLAKENVTQDAEDNTVSFLQPNGAIFEPSLSVGTEADNFTVLNLAVAAASHIYQNQFVQMI
modifications: left off: a dimerising Fc or GST
For the molecule B1, the “inhibition of 125I-CD4 binding to immobilized gp120” value (shortened to “inhibition of 125I-CD4 binding”) in assay [1] is listed as around 89%.

B2: LFP75-155: GST fusion protein containing the LIMPII TSP binding domain (aa 75-155) (protein)
chain: ILRGETPRVEEVGPYTYRELRNKANIQFGDNGTTISAVSNKAYVFERDQSVGDPKIDLIRTLNIPVLTVIEWSQVHFLREI
modifications: left off: a dimerising Fc or GST
Turning to B2, in assay [1], the “inhibition of 125I-CD4 binding” value was around 89%. Besides, the “inhibition of 125I-TSP1 binding to gp160” value in assay [2] turned out to be 47±14%.

B3: LIMPII peptide: LIMPII TSP-binding peptide, 10 kDa product purified after removal of GST moiety by proteolytic cleavage (protein)
chain: ILRGETPRVEEVGPYTYRELRNKANIQFGDNGTTISAVSNKAYVFERDQSVGDPKIDLIRTLNIPVLTVIEWSQVHFLREI
In the case of B3, the “abrogation of the inhibitory effect of TSP1 by competitor” value in the assay with HIV-1 isolate IIIB (1 μM LIMPII peptide, 50-100 μg/ml TSP1, PBMC, 0.02 moi) is listed as 83-90%. Besides, the “decrease of HIV-1 infectivity, peptide alone” value with HIV-1 isolate IIIB (LIMPII peptide alone, PBMC) is on record as 9%.

B4: LFP156-243: control GST fusion protein representing downstream LIMPII sequences (protein)
chain: IEAMLKAYQQKLFVTHTVDELLWGYKDEILSLIHVFRPDISPYFGLFYEKNGTNDGDYVFLTGEDSYLNFTKIVEWNGKTSLDWWITD
modifications: left off: a dimerising Fc or GST
Turning to B4, the “inhibition of 125I-CD4 binding” value in assay [1] was 32±5%. Moreover, the “inhibition of 125I-TSP1 binding to gp160” value in assay [2] is given as “did not”.
